Measured values: publication PMC9098913, “In vitro reconstitution of Escherichia coli divisome activation” (Nature Communications, 2022)

How the values were obtained:
[1] = Membrane off-binding rate (koff) of FtsA from FRAP; set-up: Off binding rate koff: unit not given here; conditions: Fig. S4i, summary value
Outline: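 Equimolar Cy3- and Cy5-labelled FtsA plus 20% unlabelled FtsA on membrane; a rectangular ROI is bleached with the 641 nm laser and recovery imaged at one or two frames per second. Diffusion coefficient and off-rate are separated by fitting the shape of the recovery profile, using the change in slope at the bleach borders.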

FtsZ [2] = conditions: […] Tris-NTA; p-value 3.86 × 10^−4; three repeats
Outline: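 Cy5-labelled His-tagged FtsA (0.5–1 µM) bound to Tris-NTA-containing supported membranes, 20 min, washed; FtsA density set by Tris-NTA fraction. Time-lapse images drift-corrected; colocalization with FtsZ as Pearson's coefficient, FtsZ/FtsA ratio from linear-regression slope of intensity scatterplots.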

FtsZ [3] = tested on: FtsZ
Outline: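 Cy5-labelled His-tagged FtsA variants (0.5–1 µM) tethered to supported membranes via Tris-NTA lipids, with Tris-NTA density set by mixing SUVs; FRET/FRAP used equimolar Cy3/Cy5 FtsA. FtsZ–FtsA co-treadmilling imaged as dual-colour videos at one frame per 2 s; dynamics and colocalization quantified by automated image subtraction analysis.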

B1: FtsA R286W-His6: FtsA R286W (1-405) with amphipathic helix replaced by C-terminal His-tag (protein)
chain: MIKATDRKLVVGLEIGTAKVAALVGEVLPDGMVNIIGVGSCPSRGMDKGGVNDLESVVKCVQRAIDQAELMADCQISSVYLALSGKHISCQNEIGMVPISEEEVTQEDVENVVHTAKSVRVRDEHRVLHVIPQEYAIDYQEGIKNPVGLSGVRMQAKVHLITCHNDMAKNIVKAVERCGLKVDQLIFAGLASSYSVLTEDERELGVCVVDIGGGTMDIAVYTGGALRHTKVIPYAGNVVTSDIAYAFGTPPSDAEAIKVRHGCALGSIVGKDESVEVPSVGGRPPWSLQRQTLAEVIEPRYTELLNLVNEEILQLQEKLRQQGVKHHLAAGIVLTGGAAQIEGLAACAQRVFHTQVRIGAPLNITGLTDYAQEPYYSTAVGLLHYGKESHLNGEAEVEKRVTASV
modifications: Cy3 or Cy5 at the N-terminus in the labelled form (sortagging as for native FtsA); left off: TwinStrep-SUMO, N-terminal, cleaved | 5xGlycine tag, N-terminal, kept | His6, C-terminal, kept
Off binding rate koff ([1]; 0.10 % Tris-NTA lipids, + FtsZ): 0.0533
Off binding rate koff ([1]; 0.10 % Tris-NTA lipids, without FtsZ): 0.0639
Off binding rate koff ([1]; 0.40 % Tris-NTA lipids, + FtsZ): 0.0309
Off binding rate koff ([1]; 0.40 % Tris-NTA lipids, without FtsZ): 0.0536
Off binding rate koff ([1]; 0.60 % Tris-NTA lipids, + FtsZ): 0.0489
Off binding rate koff ([1]; 0.60 % Tris-NTA lipids, without FtsZ): 0.0398
Off binding rate koff ([1]; […] Tris-NTA lipids, + FtsZ): 0.0386
Off binding rate koff ([1]; […] Tris-NTA lipids, without FtsZ): 0.0644
PCC His-tagged FtsA/FtsZ (FtsZ [2]): 0.63 ± 0.02
co-treadmilling with FtsZ, reduction compared to the reversibly membrane-binding protein (FtsZ [3]; […] Tris-NTA R286W-His6 vs 0.8 µM R286W): about 50%
PCCdiff His-tagged FtsA/FtsZ (FtsZ [3]; […] Tris-NTA, p-value […] 10^−4 (vs WT-His6), 7.78 × 10^−5 (vs R286W), three repeats): 0.36 ± 0.02
